According to the supplement of paper PMC10126150:
± gives the standard deviation of the averaged measurements.

System: ATP
Test: switch fluorescence ratio, 500 uM ATP over buffer (Cy3 cluster intensity, sum of 5 cycles each) (fold (ratio)); higher = stronger signal-on switching upon ATP binding; sequences stand for … in TCGTCGGCAGCGTCAGATGTGTATAAGAGACAGTTTTTTTTTTTTTTTTTTTTTTTTT…TC
Settings: aptamer strand: ATP DNA aptamer (quencher-CACCTGGGGGAGTATTGCGGAGGAAGG + anchor), 100 nM annealed; ATP concentration: 500 uM
Outline: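 The quencher-labelled ATP aptamer, at 100 nM, was annealed to Cy3-labelled switching-strand clusters on a modified Illumina MiSeq flow-cell. The clusters were imaged in selection buffer, then after 15 min with 500 uM ATP at 22 °C, and this buffer/ATP cycle ran five times with NaOH stripping and re-annealing between runs. Per-cluster fluorescence ratios, summed target-cycle over summed buffer-cycle Cy3 intensity, were averaged per switch-domain sequence. Clusters outside 100-1000 RFU were excluded.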
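Further: ATP exposure 15 min at 22 °C before imaging.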

Row | Sequence | switch fluorescence ratio
1 | GGCAATTATG | 1.02 ± 0.025
2 | CGAAAGGGAC | 1.033 ± 0.0092
3 | AGGTTGGGGC | 1.01 ± 0.052
4 | AAGGCTAATT | 0.979 ± 0.033
5 | TTGTCGTGTG | 1 ± 0.033
6 | TGGGTAGTGT | 1 ± 0.026
7 | TTGCTTGTAT | 0.9992 ± 0.0098
8 | AGAGGTGTGC | 1.049 ± 0.01
9 | TAGTGAAGGC | 0.988 ± 0.013
10 | GCATGTGTGG | 0.995 ± 0.065
11 | GAGAGGACAT | 0.996 ± 0.011
12 | AAGAGTTCCT | 1.03 ± 0.032
13 | GCATGAAAAC | 1.03 ± 0.031
14 | TAGTTTTTCC | 1.03 ± 0.037
15 | TCGATGTTTC | 1.01 ± 0.026
16 | GTATAATTCA | 0.975 ± 0.028
17 | TTTGCAGACA | 1.01 ± 0.027
18 | CTTTGGCTGA | 0.998 ± 0.025
19 | ATGGGGGGTT | 1.01 ± 0.043
20 | ATCGCGTGTG | 1.009 ± 0.0062
21 | AGGACTGAAG | 0.989 ± 0.07
22 | CTTGTTGTTC | 0.9981 ± 0.0063
23 | CAATAATTTA | 1.004 ± 0.0086

Row | Sequence | switch fluorescence ratio
24 | GCAGATGATC | 1.027 ± 0.0014
25 | ATGTTATAGT | 0.98 ± 0.04
26 | GGTACTTTTT | 1.07 ± 0.14
27 | CCACAGTGTT | 1.61 ± 0.1
28 | ACTTAGGCGG | 1 ± 0.011
29 | ATTAGTGCCG | 1.04 ± 0.14
30 | CAATTTTGTG | 0.9807 ± 0.007
31 | TTTATCTTGG | 1.02 ± 0.038
32 | TTTTACGCCG | 1.09 ± 0.041
33 | GCCCTGAGCA | 1.01 ± 0.026
34 | CATTAGGATG | 0.9941 ± 0.0021
35 | TTTAGGACGA | 0.981 ± 0.017
36 | GCTGTATTAA | 0.997 ± 0.038
37 | TAGCGCAATT | 1.74 ± 0.22
38 | TTGGAGCATG | 1.28 ± 0.049
39 | TCCCATTTTT | 1.01 ± 0.038
40 | TTTATTATGT | 0.994 ± 0.034
41 | TAGGAAGGAG | 0.98 ± 0.06
42 | ATATTGTCCA | 1.02 ± 0.0039
43 | ATTCTCCATT | 1.0229 ± 0.00088
44 | TGCTGCCGGT | 1.02 ± 0.096
45 | GCCGATTATA | 1 ± 0.00097
46 | TTCTGTGGTG | 1.01 ± 0.028

Row | Sequence | switch fluorescence ratio
47 | GCTTTCATTG | 1.014 ± 0.0046
48 | CGGTCTATAG | 1.02 ± 0.053
49 | GGCCTGGGAG | 0.992 ± 0.011
50 | TTTTCCACGA | 1.3 ± 0.35
51 | TATGTGGGAA | 1.01 ± 0.062
52 | CGGGGATTGA | 0.97 ± 0.03
53 | CGTTTTGATT | 0.997 ± 0.013
54 | CCGCAGCGGA | 2.12 ± 0.27
55 | TCGAGAGAGG | 1.01 ± 0.049
56 | TTATATGGGA | 1.01 ± 0.018
57 | AAAGACGCGC | 0.998 ± 0.038
58 | TGGTTGTCGT | 1.01 ± 0.033
59 | TGTTTAAATG | 1.01 ± 0.026
60 | AAACTGTAAA | 1.08 ± 0.045
61 | GACTTTTATT | 0.989 ± 0.017
62 | GGCAGCAAGG | 1.084 ± 0.0029
63 | CCAGGGCGGG | 0.99 ± 0.043
64 | TCCGTCGCAA | 2.23 ± 0.41
65 | TCCGGGGTGT | 1.26 ± 0.44
66 | GAAATGGTAG | 0.99 ± 0.025
67 | CATGATCCGT | 1.008 ± 0.0093
68 | TTTGTTGTAT | 1 ± 0.032
69 | AAGACTTCTT | 0.98673 ± 0.00038

Row | Sequence | switch fluorescence ratio
70 | ATTTGGTAAT | 0.952 ± 0.01
71 | TGGAGTAGAT | 0.986 ± 0.038
72 | TTGAGGGTGG | 1.0305 ± 0.0005
73 | GGCGGGATTG | 0.959 ± 0.041
74 | GTTATGGGGT | 1.01 ± 0.04
75 | GCCTGAGCTG | 1.024 ± 0.0094
76 | AATACTGATG | 1.007 ± 0.0032
77 | TGATCAGGGG | 1.03 ± 0.021
78 | TTAGTAAAAT | 1.01 ± 0.017
79 | GGTTTGGTGG | 0.992 ± 0.028
80 | CGAGGGTGTT | 1.05 ± 0.077
81 | GTCGCAAGGG | 1.15 ± 0.021
82 | GCTTACAACG | 1.02 ± 0.029
83 | TATAACATGT | 0.997 ± 0.026
84 | GGTTTGTGCT | 0.94 ± 0.051
85 | TGATCAAATG | 0.989 ± 0.023
86 | TAAGCTGTTA | 0.981 ± 0.038
87 | AAGTCTGGGC | 1.01 ± 0.036
88 | GTGGGGTCGG | 0.979 ± 0.0057
89 | TACTTGGGAG | 1.027 ± 0.0036
90 | TCAGCGGGGG | 1.11 ± 0.16
91 | GTGGGGGATT | 0.996 ± 0.03
92 | ATGTTTCGGT | 0.9918 ± 0.0073

Row | Sequence | switch fluorescence ratio
93 | CGCGACTTTC | 1.09 ± 0.021
94 | CAGCCCTAGG | 1.09 ± 0.053
95 | CTTGTTGATG | 1 ± 0.036
96 | ATTCATGATA | 0.975 ± 0.013
97 | TATTGAGGGG | 1 ± 0.038
98 | GACGAACCGG | 1.051 ± 0.0095
99 | TGAATCAACA | 1.04 ± 0.037
100 | TTGGGAGTGT | 0.994 ± 0.031
101 | GGTAACAGTG | 1.07 ± 0.085
102 | TGAGCGGTCA | 0.99 ± 0.015
103 | GAGTTAAAGT | 1.01 ± 0.014
104 | TTTTTATAAA | 1.01 ± 0.039
105 | ACCTCGGACC | 1.09 ± 0.022
106 | AGGGAGTACA | 1.01 ± 0.013
107 | GCATGGGGAT | 1.02 ± 0.051
108 | CGGGCTAAGA | 1.02 ± 0.041
109 | TTAGGGGATG | 1.026 ± 0.0098
110 | AAATCAATGT | 1.02 ± 0.035
111 | TCGGGGCCGG | 0.964 ± 0.037
112 | AAAATTGGGC | 1.08 ± 0.02
113 | GACGATTCTT | 0.97989 ± 0.00092
114 | TAAAAATAGC | 1.024 ± 0.0095
115 | CAGTCATTTT | 0.984 ± 0.031

Row | Sequence | switch fluorescence ratio
116 | GGAATGAGTA | 0.997 ± 0.016
117 | GGGGTTGTCG | 0.989 ± 0.1
118 | TTGAGAAAAG | 1.06 ± 0.099
119 | TGCAGAAGGT | 0.992 ± 0.03
120 | AGGGCTTTGT | 1 ± 0.014
121 | TTTTTAATTT | 0.993 ± 0.023
122 | AACTGCAACA | 1.22 ± 0.031
123 | TAGGGGGT | 0.985 ± 0.027
124 | TTATATTCCT | 1.11 ± 0.048
125 | GGAAATACGA | 1.27 ± 0.036
126 | CGTTAGAATC | 1.014 ± 0.0082
127 | ATTGTTAATT | 1.013 ± 0.01
128 | ACACGTGCCC | 1 ± 0.028
129 | TGTTGGGGTT | 1.01 ± 0.018
130 | TTGGGCGGCG | 0.982 ± 0.074
131 | TTTATGCACC | 1.07 ± 0.017
132 | CAGTATGGGG | 0.9664 ± 0.0013
133 | ATTGGTAACG | 0.9981 ± 0.0037
134 | CCTGGCATTG | 1.18 ± 0.09
135 | TCAGGCTGTT | 0.968 ± 0.04
136 | AAATTTGAAG | 1.02 ± 0.012
137 | TAGGAATGTT | 0.9659 ± 0.0022
138 | ATTGTGCGTA | 0.9711 ± 0.0057

Row | Sequence | switch fluorescence ratio
139 | TTCCAGGGGA | 1.08 ± 0.11
140 | TATGGGAGGT | 1.04 ± 0.029
141 | CAATTCGAGC | 0.988 ± 0.015
142 | GTTAGGATGG | 1.01 ± 0.044
143 | TCGGAGGGAA | 1.03 ± 0.027
144 | GGGGGATTGA | 1.0228 ± 0.00054
145 | TGAAAATTGA | 0.999 ± 0.017
146 | CGAAAATTAA | 1 ± 0.047
147 | CAAAAGTAAC | 1.07 ± 0.032
148 | GTGTAAAGTT | 0.972 ± 0.021
149 | TTATTGGGTG | 1.04 ± 0.024
150 | AGGCGATTTA | 0.976 ± 0.022
151 | TACCAAAGGT | 1.02 ± 0.031
152 | TGATCGTCGG | 1.02 ± 0.013
153 | AAATTTTGGG | 1 ± 0.019
154 | TGGACCCGGC | 0.9858 ± 0.0054
155 | TGGAGGGTTT | 1.07 ± 0.1
156 | AAGGTGCCTG | 1.02 ± 0.064
157 | AGTACTAACT | 1.05 ± 0.048
